{
  "source": "paper PMC11109247",
  "about": "(Nature Communications, 2024)",
  "key": {"[1]": {"target": "the molecule itself", "assay": "SDS-PAGE without reduction and boiling"}, "[2]": {"target": "T1, soluble NiVMY G ectodomain used for structural determination (residues 72-602, His tag) (Nipah virus Malaysia (NiVMY), UniProt Q9IH62)", "T1 construct": "source: Expi293F, transient transfection, purified", "assay": "cryo-EM structure", "details": "both partners purified"}, "[3]": {"target": "NiVBD G ectodomain (Nipah virus, Bangladesh (GenBank …, UniProt Q4VCP5, strain))", "assay": "cell-based or functional assay"}, "[4]": {"target": "NiVMY G ectodomain (Nipah virus, Malaysia (GenBank …, UniProt E2II03))", "assay": "cell-based or functional assay"}, "[5]": {"target": "HeV G ectodomain (Hendra virus (isolate …, UniProt O89343))", "sequence (O89343 71-604)": "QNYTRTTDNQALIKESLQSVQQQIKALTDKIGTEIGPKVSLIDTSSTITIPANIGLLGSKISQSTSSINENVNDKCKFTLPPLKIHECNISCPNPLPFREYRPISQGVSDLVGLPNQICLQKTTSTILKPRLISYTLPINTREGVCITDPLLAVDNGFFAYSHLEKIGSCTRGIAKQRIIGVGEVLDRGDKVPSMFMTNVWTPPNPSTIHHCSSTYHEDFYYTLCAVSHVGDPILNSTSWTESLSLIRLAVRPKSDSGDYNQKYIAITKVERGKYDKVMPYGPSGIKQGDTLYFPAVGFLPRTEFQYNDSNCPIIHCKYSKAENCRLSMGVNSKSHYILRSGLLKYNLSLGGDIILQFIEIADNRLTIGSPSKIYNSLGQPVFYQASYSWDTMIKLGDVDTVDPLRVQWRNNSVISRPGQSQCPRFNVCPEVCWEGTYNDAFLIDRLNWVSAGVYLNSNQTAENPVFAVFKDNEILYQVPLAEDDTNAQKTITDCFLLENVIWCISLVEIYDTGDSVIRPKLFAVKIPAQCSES", "assay": "cell-based or functional assay"}},
  "note": "“And” between values parts separate entries of the source, which are not always exact repeats. Equal entries are not always repeated.",
  "data": [
    {"binder": "NiVMY G ectodomain (residues 72-602), His-tagged, used for structural determination (domain or fragment) NYTRSTDNQAVIKDALQGIQQQIKGLADKIGTEIGPKVSLIDTSSTITIPANIGLLGSKISQSTASINENVNEKCKFTLPPLKIHECNISCPNPLPFREYRPQTEGVSNLVGLPNNICLQKTSNQILKPKLISYTLPVVGQSGTCITDPLLAMDEGYFAYSHLERIGSCSRGVSKQRIIGVGEVLDRGDEVPSLFMTNVWTPPNPNTVYHCSAVYNNEFYYVLCAVSTVGDPILNSTYWSGSLMMTRLAVKPKSNGGGYNQHQLALRSIEKGRYDKVMPYGPSGIKQGDTLYFPAVGFLVRTEFKYNDSNCPITKCQYSKPENCRLSMGIRPNSHYILRSGLLKYNLSDGENPKVVFIEISDQRLSIGSPSKIYDSLGQPVFYQASFSWDTMIKFGDVLTVNPLVVNWRNNTVISRPGQSQCPRFNTCPEICWEGVYNDAFLIDRINWISAGVFLDSNQTAENPVFTVFKDNEILYRAQLASEDTNAQKTITNCFLLKNKIWCISLVEIYDTGDNVIRPKLFAVKIPEQCT", "values": [
      {"measurement": "stoichiometry N", "setting": "[1]", "value": "4 and 2"}
    ]},
    {"binder": "1E5 Fab (Fab, V domains shown, source: Expi293F, transient transfection, purified) VH: QVQLQESGPGVVKPSETLSLTCAVSGGSISDTYRWSWIRQPPGKGLEWIGYIYGSATSTYYNPSLSSRVTISKDMSKNQFSLNLNSVTAADTAVYYCARDYQYYYSGSYPTPHNWFDVWGPGVLVTVSS VL: DIQMTQSPSSLSASVGDRVTITCRASQGIIDYLSWYQQKPGKAPKLLISTASNLESGVPSRFSGSGSGTEFTLTISSLQPEDFATYSCLQGYTTPYTFGQGTKVEIK", "values": [
      {"measurement": "binding result", "setting": "[2]", "value": "binds"}
    ]},
    {"binder": "1E5 (antibody, V domains shown) VH: QVQLQESGPGVVKPSETLSLTCAVSGGSISDTYRWSWIRQPPGKGLEWIGYIYGSATSTYYNPSLSSRVTISKDMSKNQFSLNLNSVTAADTAVYYCARDYQYYYSGSYPTPHNWFDVWGPGVLVTVSS VL: DIQMTQSPSSLSASVGDRVTITCRASQGIIDYLSWYQQKPGKAPKLLISTASNLESGVPSRFSGSGSGTEFTLTISSLQPEDFATYSCLQGYTTPYTFGQGTKVEIK", "values": [
      {"measurement": "IC50 of neutralisation of authentic NiV-BD (plaque reduction; Fig. 2o)", "setting": "[3]", "value": 0.0125, "unit": "µg/mL"},
      {"measurement": "IC50 of neutralisation of authentic NiV-MY (plaque reduction; Fig. 2o)", "setting": "[4]", "value": 0.012, "unit": "µg/mL"},
      {"measurement": "IC50 of neutralisation of authentic HeV (plaque reduction; Fig. 2o)", "setting": "[5]", "value": 0.147, "unit": "µg/mL"}
    ]}
  ]
}
